Results reported in US20180066015A1, “INHIBITORS OF GROWTH FACTOR ACTIVATION ENZYMES” (Washington University, published 2018).
Starred links: 1 amine or outer side, 2 acyl side, 3 side chain; linkers in the order of their positions; H or OH if unused. Non-standard residues stand in square brackets, D forms with d. No end group written: not given here. *: point of attachment. Kbt‑6‑CONH = ketobenzothiazole-6-CONH (amide link to Val), O=C(c1ccc2nc([*:1])sc2c1)[*:2]; kbt = C-terminal ketobenzothiazole, c1ccc2sc(*)nc2c1; His(π-Bom) = N[C@@H](Cc1cncn1COCc1ccccc1)C(=O)O; Fmoc = O=C(OCC1c2ccccc2-c2ccccc21)*; cmk = not defined here

Legend:
[1] = target: Hepatocyte Growth Factor Activator (HGFA) serine protease domain, N-terminal His-tag, recombinant (Homo sapiens (Human)) (UniProt Q04756)
[2] = target: Hepatocyte Growth Factor Activator (HGFA) serine protease domain, N-terminal His-tag, recombinant (Homo sapiens (Human)) (UniProt Q04756); experiment: fluorogenic inhibition assay
[3] = target: T1, matriptase (Charles Craik, UCSF), recombinant (Homo sapiens (Human), UniProt Q9Y5Y6); experiment: fluorogenic inhibition assay
T1 sequence: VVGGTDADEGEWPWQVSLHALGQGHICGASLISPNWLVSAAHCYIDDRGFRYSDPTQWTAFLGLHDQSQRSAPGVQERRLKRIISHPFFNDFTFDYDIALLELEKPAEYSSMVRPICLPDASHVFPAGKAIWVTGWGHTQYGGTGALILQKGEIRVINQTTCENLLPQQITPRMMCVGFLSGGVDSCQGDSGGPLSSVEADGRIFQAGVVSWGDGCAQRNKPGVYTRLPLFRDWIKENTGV
Protocol: (§1) Inhibitors (11-pt serial dilutions, 0-20 μM final concentration in reaction) were serially diluted in DMSO (2% DMSO final concentration) and then mixed with either recombinant serine protease domain of HGFA [Z. Han, P. K. Harris, D. E. Jones, R. Chugani, T. Kim, M. Agarwal, W. Shen, S. A. Wildman, J. W. Janetka, Acs Med Chem Lett 2014, 5, 1219-1224], matriptase (Charles Craik, UCSF) or hepsin* (#4776-SE-010, R&D Systems, Minneapolis, Minn.) in black 384 well plates (Corning #3575. Corning, N.Y.). […] The final substrate concentrations for all assays were at the Kₘ for the respective enzymes. Changes in fluorescence (excitation at 380 nm and emission at 460 nm) were measured at room temperature over time in a Biotek Synergy 2 plate reader (Winnoski, Vt.). Using GraphPad Prism version 6.04 software program, (GraphPad Software, San Diego, Calif., www.graphpad.com), a four parameter curve fit was used to determine the inhibitor IC₅₀s from a plot of the mean reaction velocity versus the inhibitor concentration. The IC₅₀ values represent the average of three separate experimental determinations.
(§2) Fluorescent inhibitor and chromogenic proteolytic assays were performed in general accordance with the procedures described in Example 4 for compounds prepared in Examples 5 and 6.

[4] = target: Recombinant human hepsin (4776-SE-010, R&D Systems), activated (human, UniProt P05981); experiment: fluorogenic inhibition assay
Protocol: as §1, §2

[5] = target: Factor Xa; experiment: selectivity inhibition assay
[6] = target: Trypsin; experiment: selectivity inhibition assay
[7] = target: recombinant thrombin; experiment: selectivity inhibition assay

## H-KQLdR-kt (peptide)
[1]
  IC50 of enzyme inhibition: 11300 nM

## Ac-WQLdR-kt (peptide)
[1]
  IC50 of enzyme inhibition: 7120 nM

## Ac-KHLdR-kt (peptide)
[1]
  IC50 of enzyme inhibition: 10900 nM

## H-KQLR(SEQ ID NO: 1)-Kt (peptide)
[1]
  IC50 of enzyme inhibition: 440 nM

## Ac-WKLdR-kt (peptide)
[1]
  IC50 of enzyme inhibition: 6500 nM

## Ac-KQLdR-kt (peptide)
[1]
  IC50 of enzyme inhibition: 5530 nM

## Ac-SHLdR-kt (peptide)
[1]
  IC50 of enzyme inhibition: 21200 nM

## Ac-SdRLR-kt (peptide)
[1]
  IC50 of enzyme inhibition: 1420 nM

## Ac-RQLdR-kt (peptide)
[1]
  IC50 of enzyme inhibition: 3120 nM

## Ac-SKFdR-kt (peptide)
[1]
  IC50 of enzyme inhibition: 10800 nM

## Ac-SRLdR-kt (peptide)
[1]
  IC50 of enzyme inhibition: 2240 nM

## Ac-KQFdR-kt (peptide)
[1]
  IC50 of enzyme inhibition: 7820 nM

## Ac-SdRLdR-kt (peptide)
[1]
  IC50 of enzyme inhibition: 11900 nM

## Ac-SKLdR-kt (peptide)
[1]
  IC50 of enzyme inhibition: 6310 nM

## Fmoc-His-Arg-kbt [Fmoc-HR-kbt]
[2]
  Ki: 6360 nM
[3]
  Ki: 66.7 nM
[4]
  Ki: 268 nM

## Fmoc-Ile-Arg-kbt [Fmoc-IR-kbt]
[2]
  Ki: 6470 nM
[3]
  Ki: 657 nM
[4]
  Ki: 297 nM

## Fmoc-Leu-Arg-kbt [Fmoc-LR-kbt]
[2]
  Ki: 450 nM
[5]
  Ki: 410 nM
[6]
  Ki: 19.8 nM
[7]
  Ki: 995 nM
[3]
  Ki: 425 nM
[4]
  Ki: 115 nM

## Fmoc-Lys-Arg-kbt [Fmoc-KR-kbt]
[2]
  Ki: > 20000 nM
[3]
  Ki: 0.2 nM
[4]
  Ki: 159 nM

## Fmoc-Phe-Arg-kbt [Fmoc-FR-kbt]
[2]
  Ki: 964 nM
[5]
  Ki: 28.4 nM
[6]
  Ki: 14.3 nM
[7]
  Ki: > 2000 nM
[3]
  Ki: 1280 nM
[4]
  Ki: 778 nM

## Fmoc-Pro-Arg-kbt [Fmoc-PR-kbt]
[2]
  Ki: > 20000 nM
[3]
  Ki: 40.4 nM
[4]
  Ki: 776 nM

## Fmoc-Ser-Arg-kbt [Fmoc-SR-kbt]
[2]
  Ki: > 20000 nM
[3]
  Ki: 90 nM
[4]
  Ki: 886 nM

## Fmoc-Thr-Arg-kbt [Fmoc-TR-kbt]
[2]
  Ki: > 20000 nM
[3]
  Ki: 1220 nM
[4]
  Ki: 437 nM

## Fmoc-Trp-Arg-kbt [Fmoc-WR-kbt]
[2]
  Ki: 3200 nM
[3]
  Ki: 824 nM
[4]
  Ki: 411 nM

## Fmoc-Tyr-Arg-kbt [Fmoc-YR-kbt]
[2]
  Ki: 2960 nM
[3]
  Ki: 332 nM
[4]
  Ki: 217 nM

## Fmoc-Val-Arg-kbt [Fmoc-VR-kbt]
[2]
  Ki: 4630 nM
[3]
  Ki: 1490 nM
[4]
  Ki: 314 nM

## H-Trp-Phe-Arg-kbt [H-WFR-kbt]
[2]
  Ki: 5680 nM
[4]
  Ki: 240 nM

## H-[dW]-Phe-Arg-kbt [H-dWFR-kbt]
[2]
  Ki: 2250 nM
[4]
  Ki: 370 nM

## H-[dW]-Leu-Arg-kbt [H-dWLR-kbt]
[2]
  Ki: 128 nM
[4]
  Ki: 3.58 nM

## H-[dW]-Phe-Arg-{kbt-OH} [H-dWFR-kbt-COOH]
[2]
  Ki: 981 nM
[3]
  Ki: 232 nM
[4]
  Ki: 1.41 nM

## H-Arg-Leu-Arg-kbt [H-RLR-kbt]
[2]
  Ki: 83.1 nM
[5]
  Ki: 56 nM
[6]
  Ki: 0.13 nM
[7]
  Ki: 8200 nM
[4]
  Ki: 0.5 nM

## H-Trp-Leu-Arg-{kbt-OH} [H-WLR-kbt-COOH]
[2]
  Ki: 1380 nM
[4]
  Ki: 446 nM

## H-[dW]-Leu-Arg-{kbt-OH} [H-dWLR-kbt-COOH]
[2]
  Ki: 346 nM
[4]
  Ki: 136 nM

B1: H-His(Bom)-WLR-kbt (peptide)
peptide: H-[His(π-Bom)]WLR-kbt
SMILES: CC(C)C[C@H](NC(=O)[C@H](Cc1c[nH]c2ccccc12)NC(=O)[C@@H](N)Cc1cncn1COCc1ccccc1)C(=O)N[C@@H](CCCNC(=N)N)C(=O)c1nc2ccccc2s1
[2]
  Ki: 3710 nM
[3]
  Ki: 1550 nM
[4]
  Ki: 2.08 nM

B2: H-His(Bom)-dWLR-kbt (peptide)
peptide: H-[His(π-Bom)][dW]LR-kbt
SMILES: CC(C)C[C@H](NC(=O)[C@@H](Cc1c[nH]c2ccccc12)NC(=O)[C@@H](N)Cc1cncn1COCc1ccccc1)C(=O)N[C@@H](CCCNC(=N)N)C(=O)c1nc2ccccc2s1
[2]
  Ki: 2280 nM
[3]
  Ki: 1500 nM
[4]
  Ki: 1.13 nM

## H-Leu-Leu-Arg-{kbt-Val-NH2} [H-LLR-kbt-Val-NH2]
[2]
  Ki: 82.1 nM
[5]
  Ki: 159 nM
[6]
  Ki: 0.61 nM
[7]
  Ki: 101 nM
[4]
  Ki: 0.88 nM

## H-Trp-Leu-Arg-kbt [H-WLR-kbt]
[2]
  Ki: 104 nM
[5]
  Ki: 532 nM
[6]
  Ki: 0.05 nM
[7]
  Ki: 457 nM
[4]
  Ki: 1.52 nM

## Ac-KRLR-{Kbt‑6‑CONH-Val-NH2} [Ac-KRLR(SEQ ID NO: 8)-Kbt-Val-NH2]
[2]
  Ki: 5.83 nM
[5]
  Ki: 17 nM
[7]
  Ki: 1560 nM
[3]
  Ki: 7.42 nM
[4]
  Ki: 0.227 nM

B3: Ac-WLFR(SEQ ID NO: 20)-Kbt (peptide)
peptide: Ac-WLFR-kbt
SMILES: CC(=O)N[C@@H](Cc1c[nH]c2ccccc12)C(=O)N[C@@H](CC(C)C)C(=O)N[C@@H](Cc1ccccc1)C(=O)N[C@@H](CCCNC(=N)N)C(=O)c1nc2ccccc2s1
[2]
  Ki: 133 nM
[5]
  Ki: 1 nM
[7]
  Ki: > 20000 nM
[3]
  Ki: 5.96 nM
[4]
  Ki: 0.347 nM

## Ac-KRLR (not fully specified (C-terminus); also: benzyl COOH at 3 or 4 (tables differ)) [Ac-KRLR(SEQ ID NO: 8)-kbt-Benzyl-3-COOH]
[2]
  Ki: 3.33 nM
[7]
  Ki: 1620 nM
[3]
  Ki: 3.6 nM
[4]
  Ki: 0.3 nM

## {Cy5.5}-KRLR-cmk (reading uncertain) [Cy5.5-KRLR(SEQ ID NO: 8)-cmk]
[2]
  Ki: 34.1 nM
[3]
  Ki: 172 nM
[4]
  Ki: 324 nM

## {Cy5.5}-KRLR-kbt [Cy5.5-KRLR(SEQ ID NO: 8)-kbt]
[2]
  Ki: 608 nM
[3]
  Ki: 87.5 nM
[4]
  Ki: 3.89 nM

## Fmoc-Ala-Arg-kbt [Fmoc-AR-kbt]
[2]
  Ki: 7980 nM
[3]
  Ki: 0.5 nM
[4]
  Ki: 272 nM

## Fmoc-Arg-Arg-kbt [Fmoc-RR-kbt]
[2]
  Ki: 8630 nM
[3]
  Ki: 2 nM
[4]
  Ki: 99.9 nM

## Fmoc-Asn-Arg-kbt [Fmoc-NR-kbt]
[2]
  Ki: > 20000 nM
[3]
  Ki: 84.1 nM
[4]
  Ki: 1.92 nM

## Fmoc-Asp-Arg-kbt [Fmoc-DR-kbt]
[2]
  Ki: > 20000 nM
[3]
  Ki: 398 nM
[4]
  Ki: 233 nM

## Fmoc-Gln-Arg-kbt [Fmoc-QR-kbt]
[2]
  Ki: 6830 nM
[3]
  Ki: 1.6 nM
[4]
  Ki: 170 nM

## Fmoc-Glu-Arg-kbt [Fmoc-ER-kbt]
[2]
  Ki: > 20000 nM
[3]
  Ki: 8.4 nM
[4]
  Ki: 338 nM

## Fmoc-Gly-Arg-kbt [Fmoc-GR-kbt]
[2]
  Ki: 9380 nM
[3]
  Ki: 0.1 nM
[4]
  Ki: 831 nM

## Fmoc-Met-Arg-kbt [Fmoc-MR-kbt]
[3]
  Ki: 62.1 nM
[4]
  Ki: 490 nM
